Source: patent publication US10253076B2, “Peptides and combination of peptides for use in immunotherapy against ovarian cancer and other cancers” (immatics biotechnologies GmbH, priority 2015, dated 2019)

Molecular target: HLA-A*02:01 (Homo sapiens, UniProt P04439, D140Y/D185E/D98H/E176V/E277Q/G131W/G231S/I119V/I121R/I166T/I218V/L300P/L318F/N151K/N90K/P208A/P217A/Q86G/Q94H/R138H/R169H/T345S)
Assay: MHC binding assay (UV-ligand exchange, beta2m ELISA, peptide exchange yield)
Conditions: binding of HLA-class I restricted peptides to HLA-A*02:01, ranged by peptide exchange yield (UV-ligand exchange, β2m ELISA)
Procedure, shortened: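 Readout is a β2m ELISA: stabilized complexes captured on streptavidin, detected with HRP-conjugated anti-β2m and TMB at 450 nm, reporting peptide exchange yield. Complexes come from UV-light cleavage of a conditional ligand in HLA-A*02:01 and replacement by the candidate peptide, samples diluted 100-fold.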

In the case of “241 (SLVEVNPAYSV; listed as Homo sapiens) [compound 241]”, the Peptide exchange is reported as “″+++″ (≥50% = +++)”.

In the case of “242 (AIAYILQGV; listed as Homo sapiens) [compound 242]”, the Peptide exchange is reported as “″++″ (≥20% = ++)”.

With “243 (LLLNELPSV; listed as Homo sapiens) [compound 243]” the Peptide exchange was “″+++″ (≥50% = +++)”.

In the case of “244 (SLFGGTEITI; listed as Homo sapiens) [compound 244]”, the Peptide exchange is reported as “″+++″ (≥50% = +++)”.

For “245 (SMIDDLLGV; listed as Homo sapiens) [compound 245]”, the Peptide exchange was “″+++″ (≥50% = +++)”.

For “246 (LLWEVVSQL; listed as Homo sapiens) [compound 246]”, the Peptide exchange was “″+++″ (≥50% = +++)”.

“248 (FLFPNQYVDV; listed as Homo sapiens) [compound 248]” was tested, and the Peptide exchange was “″+++″ (≥50% = +++)”.

In the case of “249 (LLDGFLVNV; listed as Homo sapiens) [compound 249]”, the Peptide exchange is reported as “″+++″ (≥50% = +++)”.

With “250 (ALSEEGLLVYL; listed as Homo sapiens) [compound 250]” the Peptide exchange was “″+++″ (≥50% = +++)”.

“251 (ALYTGFSILV; listed as Homo sapiens) [compound 251]” was tested, and the Peptide exchange was “″++″ (≥20% = ++)”.

In the case of “252 (LLIGTDVSL; listed as Homo sapiens) [compound 252]”, the Peptide exchange is reported as “″+++″ (≥50% = +++)”.

With “253 (GLDAATATV; listed as Homo sapiens) [compound 253]” the Peptide exchange was “″++″ (≥20% = ++)”.

In the case of “254 (TLLAFIMEL; listed as Homo sapiens) [compound 254]”, the Peptide exchange is reported as “″+++″ (≥50% = +++)”.

For “255 (VLASYNLTV; listed as Homo sapiens) [compound 255]”, the Peptide exchange was “″+++″ (≥50% = +++)”.

In the case of “256 (FLPPEHTIVYI; listed as Homo sapiens) [compound 256]”, the Peptide exchange is reported as “″+++″ (≥50% = +++)”.

In the case of “257 (SIFSAFLSV; listed as Homo sapiens) [compound 257]”, the Peptide exchange is reported as “″+++″ (≥50% = +++)”.

In the case of “258 (ELAERVPAI; listed as Homo sapiens) [compound 258]”, the Peptide exchange is reported as “″++″ (≥20% = ++)”.

In the case of “261 (YVLEFLEEI; listed as Homo sapiens) [compound 261]”, the Peptide exchange is reported as “″++″ (≥20% = ++)”.

In the case of “262 (LLWGDLIWL; listed as Homo sapiens) [compound 262]”, the Peptide exchange is reported as “″+++″ (≥50% = +++)”.

In the case of “263 (LLVSNLDFGV; listed as Homo sapiens) [compound 263]”, the Peptide exchange is reported as “″+++″ (≥50% = +++)”.

With “264 (SLQEQLHSV; listed as Homo sapiens) [compound 264]” the Peptide exchange was “″+++″ (≥50% = +++)”.

In the case of “265 (LLFGGTKTV; listed as Homo sapiens) [compound 265]”, the Peptide exchange is reported as “″++″ (≥20% = ++)”.

With “266 (KITDTLIHL; listed as Homo sapiens) [compound 266]” the Peptide exchange was “″+++″ (≥50% = +++)”.

“267 (ALQDFLLSV; listed as Homo sapiens) [compound 267]” was tested, and the Peptide exchange was “″+++″ (≥50% = +++)”.

“269 (RVLEVGALQAV; listed as Homo sapiens) [compound 269]” was tested, and the Peptide exchange was “″++″ (≥20% = ++)”.

With “270 (LLLDEEGTFSL; listed as Homo sapiens) [compound 270]” the Peptide exchange was “″++″ (≥20% = ++)”.

With “271 (LVYPLELYPA; listed as Homo sapiens) [compound 271]” the Peptide exchange was “″+++″ (≥50% = +++)”.

With “272 (ALGNTVPAV; listed as Homo sapiens) [compound 272]” the Peptide exchange was “″+++″ (≥50% = +++)”.

In the case of “273 (NLFQSVREV; listed as Homo sapiens) [compound 273]”, the Peptide exchange is reported as “″++″ (≥20% = ++)”.

With “274 (SLLFSLFEA; listed as Homo sapiens) [compound 274]” the Peptide exchange was “″++″ (≥20% = ++)”.

For “275 (YLVYILNEL; listed as Homo sapiens) [compound 275]”, the Peptide exchange was “″++″ (≥20% = ++)”.

“276 (ALFTFSPLTV; listed as Homo sapiens) [compound 276]” was tested, and the Peptide exchange was “″+++″ (≥50% = +++)”.

In the case of “277 (LLPPLESLATV; listed as Homo sapiens) [compound 277]”, the Peptide exchange is reported as “″++″ (≥20% = ++)”.

For “278 (QLLDVVLTI; listed as Homo sapiens) [compound 278]”, the Peptide exchange was “″++″ (≥20% = ++)”.

In the case of “279 (ALWGGTQPLL; listed as Homo sapiens) [compound 279]”, the Peptide exchange is reported as “″++″ (≥20% = ++)”.

In the case of “280 (VLPDPEVLEAV; listed as Homo sapiens) [compound 280]”, the Peptide exchange is reported as “″+++″ (≥50% = +++)”.

In the case of “281 (ILRESTEEL; listed as Homo sapiens) [compound 281]”, the Peptide exchange is reported as “″+++″ (≥50% = +++)”.

For “282 (LLADVVPTT; listed as Homo sapiens) [compound 282]”, the Peptide exchange was “″+++″ (≥50% = +++)”.

With “284 (ILLSQTTGV; listed as Homo sapiens) [compound 284]” the Peptide exchange was “″+++″ (≥50% = +++)”.

For “285 (QLLHVGVTV; listed as Homo sapiens) [compound 285]”, the Peptide exchange was “″+++″ (≥50% = +++)”.

With “286 (YLFPGIPEL; listed as Homo sapiens) [compound 286]” the Peptide exchange was “″+++″ (≥50% = +++)”.

For “287 (FLNEFFLNV; listed as Homo sapiens) [compound 287]”, the Peptide exchange was “″+++″ (≥50% = +++)”.

“288 (NLINEINGV; listed as Homo sapiens) [compound 288]” was tested, and the Peptide exchange was “″+++″ (≥50% = +++)”.

With “289 (VLLEIEDLQV; listed as Homo sapiens) [compound 289]” the Peptide exchange was “″++++″ (≥75% = ++++)”.

For “295 (VLDRESPNV; listed as Homo sapiens) [compound 295]”, the Peptide exchange was “″+++″ (≥50% = +++)”.

For “296 (FMEGAIIYV; listed as Homo sapiens) [compound 296]”, the Peptide exchange was “″+++″ (≥50% = +++)”.

With “297 (VLADIELAQA; listed as Homo sapiens) [compound 297]” the Peptide exchange was “″+++″ (≥50% = +++)”.

For “298 (VMITKLVEV; listed as Homo sapiens) [compound 298]”, the Peptide exchange was “″+++″ (≥50% = +++)”.

For “299 (YLLETSGNL; listed as Homo sapiens) [compound 299]”, the Peptide exchange was “″+++″ (≥50% = +++)”.

For “300 (ALLGQTFSL; listed as Homo sapiens) [compound 300]”, the Peptide exchange was “″+++″ (≥50% = +++)”.

With “301 (FLVEDLVDSL; listed as Homo sapiens) [compound 301]” the Peptide exchange was “″+++″ (≥50% = +++)”.

In the case of “302 (ALLQEGEVYSA; listed as Homo sapiens) [compound 302]”, the Peptide exchange is reported as “″+++″ (≥50% = +++)”.

“303 (AILPQLFMV; listed as Homo sapiens) [compound 303]” was tested, and the Peptide exchange was “″++++″ (≥75% = ++++)”.

With “304 (MTLGQIYYL; listed as Homo sapiens) [compound 304]” the Peptide exchange was “″+++″ (≥50% = +++)”.

“305 (SIANFSEFYV; listed as Homo sapiens) [compound 305]” was tested, and the Peptide exchange was “″++++″ (≥75% = ++++)”.

With “306 (ALVNVQIPL; listed as Homo sapiens) [compound 306]” the Peptide exchange was “″+++″ (≥50% = +++)”.

“307 (ALPVSLPQI; listed as Homo sapiens) [compound 307]” was tested, and the Peptide exchange was “″+++″ (≥50% = +++)”.

In the case of “308 (SQYSGQLHEV; listed as Homo sapiens) [compound 308]”, the Peptide exchange is reported as “″+++″ (≥50% = +++)”.
